Measured values reported in PMC6624373, “Lamin A molecular compression and sliding as mechanisms behind nucleoskeleton elasticity” (Nature Communications, 2019).
Numbering of substitutions follows the chain as printed.

B1: lamin A R25G (natural protein, human, UniProt P02545 1-646, looked up)
chain: METPSQRRATRSGAQASSTPLSPTGITRLQEKEDLQELNDRLAVYIDRVRSLETENAGLRLRITESEEVVSREVSGIKAAYEAELGDARKTLDSVAKERARLQLELSKVREEFKELKARNTKKEGDLIAAQARLKDLEALLNSKEAALSTALSEKRTLEGELHDLRGQVAKLEAALGEAKKQLQDEMLRRVDAENRLQTMKEELDFQKNIYSEELRETKRRHETRLVEIDNGKQREFESRLADALQELRAQHEDQVEQYKKELEKTYSAKLDNARQSAERNSNLVGAAHEELQQSRIRIDSLSAQLSQLQKQLAAKEAKLRDLEDSLARERDTSRRLLAEKEREMAEMRARMQQQLDEYQELLDIKLALDMEIHAYRKLLEGEEERLRLSPSPTSQRSRGRASSHSSQTQGGGSVTKKRKLESTESRSSFSQHARTSGRVAVEEVDEEGKFVRLRNKSNEDQSMGNWQIKRQNGDDPLLTYRFPPKFTLKAGQVVTIWAAGAGATHSPPTDLVWKAQNTWGCGNSLRTALINSTGEEVAMRKLVRSVTVVEDDEDEDGDDLLHHHHGSHCSSSGDPAEYNLRSRTVLCGTCGQPADKASASGSGAQVGGPISSGSSASSVTVTRSYRSVGGSGGGSFGDNLVTRSY
notes: lamin A, human; pre-lamin A without its last 18 amino acids, as m1; mutation associated with EDMD/LGMD1B; source: E. coli (pET28b); purification of the mutants not separately stated
B2: lamin A E65G (natural protein, human, UniProt P02545 1-646, looked up)
chain: B1 chain with G25R, E65G
notes: as for B1
B3: lamin A R388E (natural protein, human, UniProt P02545 1-646, looked up)
chain: B1 chain with G25R, R388E
notes: lamin A, human; pre-lamin A without its last 18 amino acids, as m1; de novo mutant; source: E. coli (pET28b); purification of the mutants not separately stated
B4: lamin A E33G (natural protein, human, UniProt P02545 1-646, looked up)
chain: B1 chain with G25R, E33G
notes: as for B1
B5: lamin A R388C (natural protein, human, UniProt P02545 1-646, looked up)
chain: B1 chain with G25R, R388C
notes: lamin A, human; pre-lamin A without its last 18 amino acids, as m1; mutation associated with CMD; source: E. coli (pET28b); purification of the mutants not separately stated
B6: lamin A E82K (natural protein, human, UniProt P02545 1-646, looked up)
chain: B1 chain with G25R, E82K
notes: lamin A, human; pre-lamin A without its last 18 amino acids, as m1; mutation associated with DCM-CD; source: E. coli (pET28b); purification of the mutants not separately stated
B7: lamin A R401C (natural protein, human, UniProt P02545 1-646, looked up)
chain: B1 chain with G25R, R401C
notes: lamin A, human; pre-lamin A without its last 18 amino acids, as m1; mutation associated with EDMD; source: E. coli (pET28b); purification of the mutants not separately stated
B8: lamin A R401E (natural protein, human, UniProt P02545 1-646, looked up)
chain: B1 chain with G25R, R401E
notes: as for B3

Target: the molecule itself
Test: rotary metal shadowing EM; in vitro assembly assay: after dialysis into 25 mM MES, 150 mM NaCl, 1 mM DTT, 1 mM EGTA pH 6.5, 30% glycerol; dimers scored as singular or incorporated into head-to-tail oligomers

Stoichiometry N, 2:
B1
B2
B3
B4
B5
B6
B7
B8
